{"source": "patent US20200207829", "tested_on": "TMt-NES-dCas9VP64"}
{"substance": "TEVC151A", "values": [{"measurement": "EYFP activation score", "result": "did not show any activity above baseline levels"}]}
